Experiments:
[1] = target: recombinant Plasmodium falciparum Hsp70-1 (PfHsp70-1), full length (Plasmodium falciparum); assay: SPR; ProteOn XPR36, ligand amine-coupled to GLC chip, analyte 125-2000 nM at 50 μl/min, PBS-Tween with 20 mM EDTA pH 7.4, 25 °C, Langmuir fit; no nucleotide
[2] = target: recombinant Plasmodium falciparum Hsp70-1 (PfHsp70-1), full length (Plasmodium falciparum); assay: SPR; ProteOn XPR36, ligand amine-coupled to GLC chip, analyte 125-2000 nM at 50 μl/min, PBS-Tween with 20 mM EDTA pH 7.4, 25 °C, Langmuir fit; with 5 mM ADP
[3] = target: recombinant Plasmodium falciparum Hsp70-1 (PfHsp70-1), full length (Plasmodium falciparum); assay: SPR; ProteOn XPR36, ligand amine-coupled to GLC chip, analyte 125-2000 nM at 50 μl/min, PBS-Tween with 20 mM EDTA pH 7.4, 25 °C, Langmuir fit; with 5 mM ATP

Kd [1]: 59.8 µM
koff [1]: 2.96e-05 s⁻¹
kon [1]: 0.495 M⁻¹ s⁻¹
Kd [2]: 12.1 µM
koff [2]: 3.61e-05 s⁻¹
kon [2]: 298 M⁻¹ s⁻¹
Kd [3]: 0.0241 µM
koff [3]: 2.42e-05 s⁻¹
kon [3]: 997 M⁻¹ s⁻¹
Substance: recombinant Plasmodium falciparum Hsp70-z (PfHsp70-z) (natural protein)
